Source: the PETadex activity labels (doi:10.1002/cssc.202101062)
Changes are numbered by the printed parent chain.

Tests used:
PET [1] = assay: Proxy for plastic degradation [Weight/mass loss]; settings: pH 8
gfPET [2] = assay: Proxy for plastic degradation [Weight/mass loss]; settings: pH 8
gfPET [3] = assay: Proxy for plastic degradation [Released monomer concentration (HPLC/LC-MS) (TPA+MHET+BHET)]
PET [4] = assay: Proxy for plastic degradation [Released monomer concentration (HPLC/LC-MS) (TPA+MHET)]; settings: pH 8

B1: unnamed (protein)
chain: MANPYERGPNPTDALLEARSGPFSVSEENVSRLSASGFGGGTIYYPRENNTYGAVAISPGYTGTEASIAWLGERIASHGFVVITIDTITTLDQPDSRAEQLNAALNHMINRASSTVRSRIDSSRLAVMGHSMGGGGSLRLASQRPDLKAAIPLTPWHLNKNWSSVRVPTLIIGADLDTIAPVLTHARPFYNSLPTSISKAYLELDGATHFAPNIPNKIIGKYSVAWLKRFVDNDTRYTQFLCPGPRDGLFGEVEEYRSTCPF
Proxy for plastic degradation (PET [1]; 45 °C): 0.5% | Proxy for plastic degradation (PET [1]; 50 °C): 1% | Proxy for plastic degradation (PET [1]; 55 °C): 1% | Proxy for plastic degradation (PET [1]; 60 °C): 1% | Proxy for plastic degradation (PET [1]; 65 °C): 15% | Proxy for plastic degradation (PET [1]; 70 °C): 18% | Proxy for plastic degradation (PET [1]; 75 °C): 15%

B2: unnamed (protein)
chain: B1 chain with R166T, L183A, R187K, T195S
Proxy for plastic degradation (gfPET [2]; 65 °C): 7% | Proxy for plastic degradation (gfPET [2]; 70 °C): 8% | Proxy for plastic degradation (gfPET [2]; 75 °C): 2% | Proxy for plastic degradation (gfPET [3]; 40 °C): 0 mmol/h | Proxy for plastic degradation (gfPET [3]; 50 °C): 0.05 mmol/h | Proxy for plastic degradation (gfPET [3]; 55 °C): 0.08 mmol/h | Proxy for plastic degradation (gfPET [3]; 60 °C): 0.18 mmol/h | Proxy for plastic degradation (gfPET [3]; 65 °C): 0.2 mmol/h | Proxy for plastic degradation (gfPET [3]; 70 °C): 0.2 mmol/h | Proxy for plastic degradation (gfPET [3]; 75 °C): 0.08 mmol/h | Proxy for plastic degradation (gfPET [3]; 80 °C): 0.05 mmol/h | Proxy for plastic degradation (gfPET [3]; 85 °C): 0 mmol/h

B3: unnamed (protein)
chain: MDGVLWRVRTAALMAALLALAAWALVWASPSVEAQSNPYQRGPNPTRSALTADGPFSVATYTVSRLSVSGFGGGVIYYPTGTSLTFGGIAMSPGYTADASSLAWLGRRLASHGFVVLVINTNSRFDYPDSRASQLSAALNYLRTSSPSAVRARLDANRLAVAGHSMGGGGTLRIAEQNPSLKAAVPLTPWHTDKTFNTSVPVLIVGAEADTVAPVSQHAIPFYQNLPSTTPKVYVELDNASHFAPNSNNAAISVYTISWMKLWVDNDTRYRQFLCNVNDPALSDFRTNNRHCQ
Proxy for plastic degradation (PET [4]; 0 h): 0 mM | Proxy for plastic degradation (PET [4]; 4 h): 3 mM | Proxy for plastic degradation (PET [4]; 8 h): 7 mM | Proxy for plastic degradation (PET [4]; 16 h): 29 mM

B4: unnamed (protein)
chain: MENPYERGPDPTESSIEAVRGPFAVAQTTVSRLQADGFGGGTIYYPTDTSQGTFGAVAISPGFTAGQESIAWLGPRIASQGFVVITIDTITRLDQPDSRGRQLQAALDHLRTNSVVRNRIDPNRMAVMGHSMGGGGALSAAANNTSLEAAIPLQGWHTRKNWSSVRTPTLVVGAQLDTIAPVSSHSEAFYNSLPSDLDKAYMELRGASHFVSNTPDTTTAKYSIAWLKRFVDNDLRYEQFLCPAPDDFAISEYRATCPF
Proxy for plastic degradation (PET [1]; 65 °C): 15% | Proxy for plastic degradation (PET [1]; 70 °C): 20% | Proxy for plastic degradation (PET [1]; 75 °C): 18% | Proxy for plastic degradation (gfPET [2]; 65 °C): 18% | Proxy for plastic degradation (gfPET [2]; 70 °C): 18% | Proxy for plastic degradation (gfPET [2]; 75 °C): 18% | Proxy for plastic degradation (gfPET [3]; 40 °C): 0 mmol/h | Proxy for plastic degradation (gfPET [3]; 50 °C): 0.08 mmol/h | Proxy for plastic degradation (gfPET [3]; 55 °C): 0.11 mmol/h | Proxy for plastic degradation (gfPET [3]; 60 °C): 0.18 mmol/h | Proxy for plastic degradation (gfPET [3]; 65 °C): 0.25 mmol/h | Proxy for plastic degradation (gfPET [3]; 70 °C): 0.3 mmol/h | Proxy for plastic degradation (gfPET [3]; 75 °C): 0.38 mmol/h | Proxy for plastic degradation (gfPET [3]; 80 °C): 0.41 mmol/h | Proxy for plastic degradation (gfPET [3]; 85 °C): 0.38 mmol/h

B5: unnamed (protein)
chain: B4 chain with E2A, F210L, N233D, A255S
Proxy for plastic degradation (PET [1]; 65 °C, part of the chain shown): 75% | Proxy for plastic degradation (PET [1]; 70 °C, part of the chain shown): 95% | Proxy for plastic degradation (PET [1]; 75 °C, part of the chain shown): 60% | Proxy for plastic degradation (gfPET [2]; 65 °C, part of the chain shown): 77% | Proxy for plastic degradation (gfPET [2]; 70 °C, part of the chain shown): 90% | Proxy for plastic degradation (gfPET [2]; 75 °C, part of the chain shown): 58% | Proxy for plastic degradation (PET [4]; 0 h, part of the chain shown): 0 mM | Proxy for plastic degradation (PET [4]; 4 h, part of the chain shown): 15 mM | Proxy for plastic degradation (PET [4]; 8 h, part of the chain shown): 26 mM | Proxy for plastic degradation (PET [4]; 16 h, part of the chain shown): 50 mM | Proxy for plastic degradation (gfPET [3]; 40 °C, part of the chain shown): 0 mmol/h | Proxy for plastic degradation (gfPET [3]; 50 °C, part of the chain shown): 0.45 mmol/h | Proxy for plastic degradation (gfPET [3]; 55 °C, part of the chain shown): 0.8 mmol/h | Proxy for plastic degradation (gfPET [3]; 60 °C, part of the chain shown): 0.9 mmol/h | Proxy for plastic degradation (gfPET [3]; 65 °C, part of the chain shown): 1.1 mmol/h | Proxy for plastic degradation (gfPET [3]; 70 °C, part of the chain shown): 1.4 mmol/h | Proxy for plastic degradation (gfPET [3]; 75 °C, part of the chain shown): 1.7 mmol/h | Proxy for plastic degradation (gfPET [3]; 80 °C, part of the chain shown): 1.65 mmol/h | Proxy for plastic degradation (gfPET [3]; 85 °C, part of the chain shown): 0.9 mmol/h
